One may read the stoichiometry N as a count of units in the complex or per binding partner.

The target in the assay is BjVIII, myotoxic Lys49-PLA2 from Bothrops jararacussu venom (Bothrops jararacussu). Kind of assay: tricine SDS-PAGE under non-reducing conditions.

Turning to “BjVIII, myotoxic Lys49-PLA2 from Bothrops jararacussu venom (natural protein)”, the stoichiometry N stood at 2.

The values above are taken from publication PMC2635704.
